T1: ICOS-L Y8 (Q51P, N57H)-His (UniProt O75144 19-256, Q51P | N57H)
T1 construct: plasmid pMAZ-ICOS-L-Y8(Q51P, N57H)-His; also called Y8 variant; source: Expi293F, transient transfection, purified (Ni-NTA agarose, SEC)
T1 sequence (looked up): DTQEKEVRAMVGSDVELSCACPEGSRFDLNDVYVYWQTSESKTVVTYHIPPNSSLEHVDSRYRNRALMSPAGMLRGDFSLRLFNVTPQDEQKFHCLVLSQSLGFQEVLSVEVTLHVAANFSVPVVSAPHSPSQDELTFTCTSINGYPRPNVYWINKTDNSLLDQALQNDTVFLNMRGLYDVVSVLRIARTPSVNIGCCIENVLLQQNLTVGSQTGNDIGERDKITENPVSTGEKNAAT

T2: ICOS-L-H (N57H)-His (UniProt O75144 19-256, N57H)
T2 construct: plasmid pMAZ-ICOS-L-H(N57H)-His; source: Expi293F, transient transfection, purified (Ni-NTA agarose, SEC)
T2 sequence (looked up): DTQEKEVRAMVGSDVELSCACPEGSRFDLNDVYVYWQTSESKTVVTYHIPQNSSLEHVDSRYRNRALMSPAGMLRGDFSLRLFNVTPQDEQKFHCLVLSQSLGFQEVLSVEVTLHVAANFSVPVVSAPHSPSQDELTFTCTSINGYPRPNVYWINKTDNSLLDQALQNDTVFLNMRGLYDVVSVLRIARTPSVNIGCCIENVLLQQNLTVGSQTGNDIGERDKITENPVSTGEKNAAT

T3: ICOS-L wild-type-His (UniProt O75144 19-256)
T3 construct: ICOS ligand (ICOS-L, B7-H2, CD275), ectodomain D1-T238; plasmid pMAZ-ICOS-L-wild-type-His; also called wild-type ICOS-L; B7-H2; source: Expi293F, transient transfection, purified (Ni-NTA agarose, SEC)
T3 sequence (looked up): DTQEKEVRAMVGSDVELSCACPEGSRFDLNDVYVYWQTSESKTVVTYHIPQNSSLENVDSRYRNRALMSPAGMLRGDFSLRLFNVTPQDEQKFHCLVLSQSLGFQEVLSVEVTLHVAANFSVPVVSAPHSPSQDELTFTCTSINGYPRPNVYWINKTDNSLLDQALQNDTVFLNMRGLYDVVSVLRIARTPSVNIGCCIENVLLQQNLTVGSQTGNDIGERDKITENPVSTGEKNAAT

T4: ICOS-L-P (Q51P)-His (UniProt O75144 19-256, Q51P)
T4 construct: plasmid pMAZ-ICOS-L-P (Q51P)-His; source: Expi293F, transient transfection, purified (Ni-NTA agarose, SEC)
T4 sequence (looked up): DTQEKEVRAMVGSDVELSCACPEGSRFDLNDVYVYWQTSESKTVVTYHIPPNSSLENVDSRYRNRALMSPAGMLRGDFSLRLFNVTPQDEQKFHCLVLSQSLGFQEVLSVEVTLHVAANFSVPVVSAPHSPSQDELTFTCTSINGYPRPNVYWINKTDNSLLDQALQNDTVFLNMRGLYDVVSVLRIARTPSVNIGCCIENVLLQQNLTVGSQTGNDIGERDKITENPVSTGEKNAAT


What was measured:
Conditions in all cases: both partners purified
[1] = target: T1, ICOS-L Y8 (Q51P, N57H)-His; experiment: BLI; Octet R8; hICOS-Fc (5 µg/mL) immobilised on a Protein A biosensor; serial dilutions of ICOS-L variants, 10 min association, 10 min dissociation, 1× PBS pH 7.4
ICOS-L-H (N57H)-His = target: T2, ICOS-L-H (N57H)-His; experiment: as above
ICOS-L wild-type-His = target: T3, ICOS-L wild-type-His; experiment: as above
ICOS-L-P (Q51P)-His = target: T4, ICOS-L-P (Q51P)-His; experiment: as above
[2] = target: T1, ICOS-L Y8 (Q51P, N57H)-His; experiment: ELISA; ICOS-Fc (hICOS-Fc or mICOS-Fc) coated at 4 µg/mL in 0.05 M Na2CO3 pH 9.6; serially diluted His-tagged ICOS-L variants, detected with mouse anti-His-HRP

Binder	Kd [1] [nM]	koff [1] [s⁻¹]	kon [1] [M⁻¹ s⁻¹]	Kd (ICOS-L-H (N57H)-His) [nM]	koff (ICOS-L-H (N57H)-His) [s⁻¹]	kon (ICOS-L-H (N57H)-His) [M⁻¹ s⁻¹]	Kd (ICOS-L wild-type-His) [nM]	koff (ICOS-L wild-type-His) [s⁻¹]	kon (ICOS-L wild-type-His) [M⁻¹ s⁻¹]	Kd (ICOS-L-P (Q51P)-His) [nM]	koff (ICOS-L-P (Q51P)-His) [s⁻¹]	kon (ICOS-L-P (Q51P)-His) [M⁻¹ s⁻¹]	binding result [2]
hICOS-Fc (Fc fusion, human, UniProt Q9Y6W8 21-140, looked up, human Inducible T-cell Co-Stimulator (ICOS), extracellular domain E21-K140; plasmid pMAZ-hICOS-Fc; also called hICOS-hFc; human ICOS ectodomain fused to human Fc; source: Expi293F, transient transfection, purified (Protein A resin)) EINGSANYEMFIFHNGGVQILCKYPDIVQQFKMQLLKGGQILCDLTKTKGSGNTVSIKSLKFCHSQLSNNSVSFFLYNLDHSHANYYFCNLSIFDPPPFKVTLTGGYLHIYESQLCCQLK	1.19	0.000179	150000	23.3	0.00567	244000	113	0.0337	298000	4.75	0.000961	202000	
mouse ICOS (E21-K141)-hFc (Fc fusion, UniProt Q9WVS0 21-141, looked up, mouse ICOS, E21-K141; Plasmid pMAZ-mICOS-Fc; also called mICOS-Fc; source: Expi293F, transient transfection, purified (Protein A resin)) EINGSADHRMFSFHNGGVQISCKYPETVQQLKMRLFREREVLCELTKTKGSGNAVSIKNPMLCLYHLSNNSVSFFLNNPDSSQGSYYFCSLSIFDPPPFQERNLSGGYLHIYESQLCCQLK													binds
